In this test the target is GST-RabGAP5 C-terminal aa578-760. Put plainly: pull-down; GST fusion on Glutathione Sepharose beads incubated with supernatants of homogenised synaptosomes of wt and σ1B −/− mouse brains, 4 hours at RT, PBS; Western blot. In general terms: Immunoblotting shows a protein as a band on a membrane.

In turn, “AP-1/σ1A complexes of σ1B −/− mice (from UniProt P22892 1-822; O35643 1-943; P35585 1-423; P61967 1-158)” gave a percent more AP-1 isolated than from wt extracts of 30%.

Source of the values: PMC4944158.
